Bridges are numbered along the chain shown (N, C = ends). Where no end group is shown, it is not given here.
Target: T1, p32 (Homo sapiens, UniProt Q07021)
T1 chain: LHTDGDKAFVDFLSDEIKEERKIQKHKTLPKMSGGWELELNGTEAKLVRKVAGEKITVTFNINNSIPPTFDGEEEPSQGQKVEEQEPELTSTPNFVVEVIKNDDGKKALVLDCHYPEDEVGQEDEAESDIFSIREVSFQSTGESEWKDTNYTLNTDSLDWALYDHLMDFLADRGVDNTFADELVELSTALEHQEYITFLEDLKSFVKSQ
Assay: SPR

Work on CGNKRTRGC (disulfide 1-9) [Lyp-1] yielded a Kd of 10.6 nM.
